What was measured:
[1] = molecular target: T1, GGG-COOH
T1 chain: GGG

[2] = molecular target: T2, LPETG (SEQ ID NO: 4) substrate (not fully specified)
T2 chain: LPETG

[3] = molecular target: T3, LAETG motif-bearing substrate (not fully specified)
T3 chain: LAETG

[4] = molecular target: LPESG motif-bearing substrate

B1: P94S/D160N/K196T (protein)
chain: MQAKPQIPKDKSKVAGYIEIPDADIKEPVYPGPATSEQLNRGVSFAEENESLDDQNISIAGHTFIDRPNYQFTNLKAAKKGSMVYFKVGNETRKYKMTSIRNVKPTDVEVLDEQKGKDKQLTLITCDDYNEKTGVWETRKIFVATEVKLEHHHHHH
- Km GGG-COOH [1]: 1830 ± 330 µM
- Km LPETG [2]: 560 µM

B2: srtA P94S (protein)
chain: MQAKPQIPKDKSKVAGYIEIPDADIKEPVYPGPATSEQLNRGVSFAEENESLDDQNISIAGHTFIDRPNYQFTNLKAAKKGSMVYFKVGNETRKYKMTSIRDVKPTDVEVLDEQKGKDKQLTLITCDDYNEKTGVWEKRKIFVATEVKLEHHHHHH
- Km GGG-COOH [1]: 650 µM
- Km LPETG [2]: 2500 µM

B3: P94S/D160N/D165A (protein)
chain: MQAKPQIPKDKSKVAGYIEIPDADIKEPVYPGPATSEQLNRGVSFAEENESLDDQNISIAGHTFIDRPNYQFTNLKAAKKGSMVYFKVGNETRKYKMTSIRNVKPTAVEVLDEQKGKDKQLTLITCDDYNEKTGVWEKRKIFVATEVKLEHHHHHH
- Km GGG-COOH [1]: 1750 ± 250 µM
- Km LPETG [2]: 510 µM

B4: P94R/D160N/D165A/K190E/K196T pentamutant sortase A (protein)
chain: MQAKPQIPKDKSKVAGYIEIPDADIKEPVYPGPATREQLNRGVSFAEENESLDDQNISIAGHTFIDRPNYQFTNLKAAKKGSMVYFKVGNETRKYKMTSIRNVKPTAVEVLDEQKGKDKQLTLITCDDYNEETGVWETRKIFVATEVKLEHHHHHH
- Km, LxExG (uM); column 5mut/2A [3]: 6160 µM
- Km, LxExG (uM); column 5mut/4S [4]: 672 µM
- Km GGG against the tetramutant [1]: the Km GGG of this mutant improved by 1.8-fold
- Km GGG against wild type srtA [1]: a 20-fold higher Km GGG
- Km GGG-COOH [1]: 2900 ± 200 µM
- Km, GGG (uM); column 5mut/wt [1]: 2990 µM
- KM LPETG against the tetramutant [2]: the kcat and KM LPETG were not altered by more than a factor of 1.3-fold
- Km LPETG [2]: 230 µM
- Km, LxExG (uM); column 5mut/wt [2]: 208 µM

B5: srtA D165A (protein)
chain: MQAKPQIPKDKSKVAGYIEIPDADIKEPVYPGPATPEQLNRGVSFAEENESLDDQNISIAGHTFIDRPNYQFTNLKAAKKGSMVYFKVGNETRKYKMTSIRDVKPTAVEVLDEQKGKDKQLTLITCDDYNEKTGVWEKRKIFVATEVKLEHHHHHH
- Km GGG-COOH [1]: 1000 ± 480 µM
- Km LPETG [2]: 3600 µM

B6: srtA K196T (protein)
chain: MQAKPQIPKDKSKVAGYIEIPDADIKEPVYPGPATPEQLNRGVSFAEENESLDDQNISIAGHTFIDRPNYQFTNLKAAKKGSMVYFKVGNETRKYKMTSIRDVKPTDVEVLDEQKGKDKQLTLITCDDYNEKTGVWETRKIFVATEVKLEHHHHHH
- Km GGG-COOH [1]: 200 µM
- Km LPETG [2]: 3300 µM

B7: D160N/K190E/K196T (clone 4.2) (protein)
chain: MQAKPQIPKDKSKVAGYIEIPDADIKEPVYPGPATPEQLNRGVSFAEENESLDDQNISIAGHTFIDRPNYQFTNLKAAKKGSMVYFKVGNETRKYKMTSIRNVKPTDVEVLDEQKGKDKQLTLITCDDYNEETGVWETRKIFVATEVKLEHHHHHH
- Km GGG-COOH [1]: 1200 ± 200 µM
- Km LPETG [2]: 1600 µM

B8: P94S/D165A (clone 4.3) (protein)
chain: MQAKPQIPKDKSKVAGYIEIPDADIKEPVYPGPATSEQLNRGVSFAEENESLDDQNISIAGHTFIDRPNYQFTNLKAAKKGSMVYFKVGNETRKYKMTSIRDVKPTAVEVLDEQKGKDKQLTLITCDDYNEKTGVWEKRKIFVATEVKLEHHHHHH
- Km GGG-COOH [1]: 1700 ± 400 µM
- Km LPETG [2]: 1100 µM

B9: wild type S. aureus sortase A (truncated, His tagged) (protein)
chain: MQAKPQIPKDKSKVAGYIEIPDADIKEPVYPGPATPEQLNRGVSFAEENESLDDQNISIAGHTFIDRPNYQFTNLKAAKKGSMVYFKVGNETRKYKMTSIRDVKPTDVEVLDEQKGKDKQLTLITCDDYNEKTGVWEKRKIFVATEVKLEHHHHHH
- Km GGG-COOH [1]: 140 µM
- Km, GGG (uM); column wt/wt [1]: 291 µM
- Km LPETG [2]: 7600 µM
- Km, LxExG (uM); column wt/wt [2]: 5180 µM

B10: srtA D160N (protein)
chain: MQAKPQIPKDKSKVAGYIEIPDADIKEPVYPGPATPEQLNRGVSFAEENESLDDQNISIAGHTFIDRPNYQFTNLKAAKKGSMVYFKVGNETRKYKMTSIRNVKPTDVEVLDEQKGKDKQLTLITCDDYNEKTGVWEKRKIFVATEVKLEHHHHHH
- Km GGG-COOH [1]: 330 µM
- Km LPETG [2]: 3700 µM

B11: P94S/D160N/D165A/K196T (protein)
chain: MQAKPQIPKDKSKVAGYIEIPDADIKEPVYPGPATSEQLNRGVSFAEENESLDDQNISIAGHTFIDRPNYQFTNLKAAKKGSMVYFKVGNETRKYKMTSIRNVKPTAVEVLDEQKGKDKQLTLITCDDYNEKTGVWETRKIFVATEVKLEHHHHHH
- Km GGG-COOH [1]: 4800 ± 700 µM
- Km LPETG [2]: 170 µM
- LPETG recognition (Km LPETG) against wild type SrtA [2]: 45-fold improved LPETG (SEQ ID NO: 4) recognition

B12: sortase 2A.3.5 (protein)
chain: QAKPQIPKDKSKVAGYIEIPDADIKEPVYPGPATREQLNRGVSFAEENESLDDQNISIAGHTFIDRPNYQFTNLKAAKKGSMVYFKVGNETRKYKMTSIRNVRPTAVEILDEQKGKDKQLTLFTCDDYNEETGVWETRKIFVATEVK
- Km, LxExG (uM); column 2A.3.5/2A [3]: 7160 µM
- Km, LxExG (uM); column 2A.3.5/wt [2]: 4110 µM

B13: sortase 2A.6A (protein)
chain: QAKPQIPKDKSKVAGYIEIPDADIKEPVYPGPATREQLNRGVSFHEENESLDDQNISIAGHTFIDRPNYQFTNLKAAKVGSMVYFKVGNETRKYKMTSIRNVRPTAVEVLDEQKGKDKQLTLVTCDDYNEETGVWETRKIFVATEVK
- Km, LxExG (uM); column 2A.6A/2A [3]: 608 µM
- Km, GGG (uM); column 2A.6A/2A [1]: 1040 µM
- Km, LxExG (uM); column 2A.6A/wt [2]: 3290 µM

B14: sortase 4S.3.5 (protein)
chain: QAKPQIPKDKSKVAGYIEIPDADIKEPVYPGPATREQLNRGVSFTEENESLDDQNISITGHTFIDRPNYQFTNLKAAKKGSMVYFKVGNETRKYKMTSIRNVKPTAVEVLDEQKGKDKQLTLVTCDDYNEETGVWETRKIFVATEVK
- Km, LxExG (uM); column 4S.3.5/4S [4]: 7310 µM

B15: sortase 4S.6B (protein)
chain: QAKPQIPKDKSKVAGYIEIPDADIKEPVYPGPATREQLDRGVSFVEENESLDDQNISISGHTAIDRPNYQFTNLPAAKKGSMVYFKVGNETRKYKMTSIRNVKPTAVEVLDEQKGKDKQLTLVTCDDYNPETGVWETRKIFVATEVK
- Km, LxExG (uM); column 4S.6B/4S [4]: 312 µM
- Km, GGG (uM); column 4S.6B/4S [1]: 15700 µM
- Km, LxExG (uM); column 4S.6B/wt [2]: 238 µM

B16: sortase 4S.4 (protein)
chain: QAKPQIPKDKSKVAGYIEIPDADIKEPVYPGPATREQLNRGVSFVEENESLDDQNISITGHTSIDRPNYQFTNLKAAKKGSMVYFKVGNETRKYKMTSIRNVKPTAVEVLDEQKGKDKQLTLVTCDDYNEETGVWETRKIFVATEVK
- Km, LxExG (uM); column 4S.4/4S [4]: 1410 µM
- Km, LxExG (uM); column 4S.4/wt [2]: 339 µM

B17: sortase 2A.6C (protein)
chain: QAKPQIPKDKSKVAGYIEIPDADIKEPVYPGPATREQLNRGVSFHEENESLDDQNISIAGHTFIDRPNYQFTNLKAAKPGSMVYFKVGNETRIYKMTSIRKVRPTAVEVLDEQKGKDKQLTLVTCDDYNEETGVWETRKIFVATEVK
- Km, LxExG (uM); column 2A.6C/2A [3]: 343 µM
- Km, GGG (uM); column 2A.6C/2A [1]: 642 µM
- Km, LxExG (uM); column 2A.6C/wt [2]: 1980 µM

B18: sortase 2A.5 (protein)
chain: QAKPQIPKDKSKVAGYIEIPDADIKEPVYPGPATREQLNHGVSFHEENESLDDQNISIAGHTFIDRPNYQFTNLKAAKIGSMVYFKVGNETRKYKMTSIRNVRPTAVEVLDEQKGKDKQLTLVTCDDYNEETGVWETRKIFVATEVK
- Km, LxExG (uM); column 2A.5/2A [3]: 433 µM
- Km, GGG (uM); column 2A.5/2A [1]: 2810 µM
- Km, LxExG (uM); column 2A.5/wt [2]: 4900 µM

B19: sortase 4S.6A (protein)
chain: QAKPQIPKDKSKVAGYIEIPDADIKEPVYPGPATREQLDRGVSFVEENESLDDQNISITGHTAIDRPNYQFTNLGAAKKGSMVYFKVGNETRKYKMTSIRNVKPTAVEVLDEQKGKDKQLTLVTCDDYNVETGVWETRKIFVATEVK
- Km, LxExG (uM); column 4S.6A/4S [4]: 102 µM
- Km, GGG (uM); column 4S.6A/4S [1]: 4950 µM
- Km, LxExG (uM); column 4S.6A/wt [2]: 1290 µM

B20: sortase 2A.6B (protein)
chain: QAKPQIPKDKSKVAGYIEIPDADIKEPVYPGPATREQLNKGVSFHEENESLDDQNISIAGHTFIDRPNYQFTNLKAAKVGSMVYFKVGNETRKYKMTSIRKVRPTAVEVLDEQKGKDKQLTLVTCDDYNEETGVWETRKIFVATEVK
- Km, LxExG (uM); column 2A.6B/2A [3]: 310 µM
- Km, GGG (uM); column 2A.6B/2A [1]: 642 µM

B21: sortase 4S.5 (protein)
chain: QAKPQIPKDKSKVAGYIEIPDADIKEPVYPGPATREQLDRGVSFVEENESLDDQNISITGHTAIDRPNYQFTNLRAAKKGSMVYFKVGNETRKYKMTSIRNVKPTAVEVLDEQKGKDKQLTLVTCDDYNEETGVWETRKIFVATEVK
- Km, LxExG (uM); column 4S.5/4S [4]: 76 µM
- Km, GGG (uM); column 4S.5/4S [1]: 26700 µM
- Km, LxExG (uM); column 4S.5/wt [2]: 12.2 µM

B22: sortase 2A.4 (protein)
chain: QAKPQIPKDKSKVAGYIEIPDADIKEPVYPGPATREQLNRGVSFHEENESLDDQNISIAGHTFIDRPNYQFTNLKAAKKGSMVYFKVGNETRKYKMTSIRNVRPTAVEILDEQKGKDKQLTLVTCDDYNEETGVWETRKIFVATEVK
- Km, LxExG (uM); column 2A.4/2A [3]: 3250 µM
- Km, LxExG (uM); column 2A.4/wt [2]: 11700 µM

B23: sortase 4S.6C (protein)
chain: QAKPQIPKDKSKVAGYIEIPDADIKEPVYPGPATREQLDRGVSFVEENESLDDQNISITGHTAIDRPNYQFTNLRAAKKGSMVYFKVGNETRKYKMTSIRNVKPTAVEVLDEQKGKDKQLTLVTCDDYNFETGVWETRKIFVATEVK
- Km, LxExG (uM); column 4S.6C/4S [4]: 156 µM
- Km, GGG (uM); column 4S.6C/4S [1]: 36000 µM
- Km, LxExG (uM); column 4S.6C/wt [2]: 16.1 µM

From patent US20150284477
